Reference: US20150344570A1 (published 2015)

T1: FcgRIIb (FcγRIIb) extracellular domain with C-terminal His tag (human, UniProt P31994 43-217)
T1 construct: extracellular domain; not shown: His tag attached to the C terminus
T1 sequence (looked up): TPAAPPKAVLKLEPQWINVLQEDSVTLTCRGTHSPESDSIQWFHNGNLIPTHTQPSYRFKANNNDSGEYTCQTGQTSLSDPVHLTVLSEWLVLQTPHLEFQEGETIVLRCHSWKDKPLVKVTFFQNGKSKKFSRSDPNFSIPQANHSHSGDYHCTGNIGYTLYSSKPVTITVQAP


Experiments:
Assay in all cases: SPR (Biacore); KD of H240-Kn061/H240-Hl071/L73-k0 divided by KD of the variant
[1] = molecular target: T1, FcgRIIb (FcγRIIb) extracellular domain …
Protocol: (§1) The antibodies were assessed for the binding to each FcgR. […] The resultant value was defined as relative KD, and used as an assessment indicator.
(§2) Analysis of interaction between objective antibody and the FcγR was carried out using Biacore T100 (GE Healthcare), Biacore T200, Biacore A100, and Biacore 4000. HBS-EP+ (GE Healthcare) was used as the running buffer, and the measurement temperature was set to 25° C. Chips produced by immobilizing the antigen peptide by the amine coupling method to a Series S sensor Chip CM5 (GE Healthcare), chips produced by allowing preliminarily biotinylated antigen peptides to interact with and immobilize onto a Series S Sensor Chip SA (certified) (GE Healthcare), chips produced by immobilizing Protein L (ACTIGEN, BioVision) to Series S Sencor Chip CM5 (GE Healthcare), or chips produced by immobilizing Protein A/G (Thermo Scientific) to Series S Sencor Chip CM5 (GE Healthcare) were used. Antibodies of interest were captured onto these chips, and allowed to interact to each FcγR diluted with running buffer.

[2] = molecular target: T2, FcgRIIIa F (FcγRIIIa type F) extracellular domain with C-terminal His tag (human, UniProt P08637 17-208)
T2 construct: extracellular domain; also called FcγRIIIa F; 3aF; not shown: His tag attached to the C terminus
Protocol: as §1, §2

[3] = molecular target: T3, FcgRIIIa V (FcγRIIIa type V) extracellular domain with C-terminal His tag (human, UniProt P08637 17-208)
T3 construct: extracellular domain; also called FcγRIIIa V; not shown: His tag attached to the C terminus
Protocol: as §1, §2

T2 sequence (P08637 17-208): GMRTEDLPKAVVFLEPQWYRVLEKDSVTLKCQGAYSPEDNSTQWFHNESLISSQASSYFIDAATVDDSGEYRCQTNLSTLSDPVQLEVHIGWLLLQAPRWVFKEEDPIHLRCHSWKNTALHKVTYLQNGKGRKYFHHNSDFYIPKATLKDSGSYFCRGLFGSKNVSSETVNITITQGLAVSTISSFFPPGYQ
T3 sequence (P08637 17-208 F176V limits assumed): as the sequence (P08637 17-208) above, with F160V counted along it

| Binder | relative KD [1] [ratio] | relative KD [2] [ratio] | relative KD [3] [ratio] |
| --- | --- | --- | --- |
| H240-Kn061/H240-Hl071/L73-k0 variant with W236Y in H240-Kn061 (antibody, human IgG1, kappa, anti-epiregulin heterodimerized IgG1; also called H240-Kn061 W236Y) heavy 1: QDQLVQSGAEVKKPGASVKVSCKASGFNIKDTYIQWVRQAPGQGLEWMGRIDPLRKQTKYREKFEGRVTITADTSTNTAYMELSSLRSEDTAVYYCVRSGREFDYWGQGTLVTVSSASTKGPSVFPLAPSSKSTSGGTAALGCLVKDYFPEPVTVSWNSGALTSGVHTFPAVLQSSGLYSLSSVVTVPSSSLGTQTYICNVNHKPSNTKVDKKVEPKSCDKTHTCPPCPAPEYYYGPSVFLFPPKPKDTLMISRTPEVTCVVVDVSDEDPEVKFNWYVDGVEVHNAKTKPREEQYNATYRVVSVLTVLHQDWLNGKEYKCKVSNKALPAPIEKTISKAKGQPREPQVCTLPPSRDELTKNQVSLWCLVKGFYPSDIAVEWESNGQPENNYKTTPPVLDSDGSFFLYSKLTVDKSRWQQGNVFSCSVMHEALHNHYTQKSLSLSP heavy 2: QDQLVQSGAEVKKPGASVKVSCKASGFNIKDTYIQWVRQAPGQGLEWMGRIDPLRKQTKYREKFEGRVTITADTSTNTAYMELSSLRSEDTAVYYCVRSGREFDYWGQGTLVTVSSASTKGPSVFPLAPSSKSTSGGTAALGCLVKDYFPEPVTVSWNSGALTSGVHTFPAVLQSSGLYSLSSVVTVPSSSLGTQTYICNVNHKPSNTKVDKKVEPKSCDKTHTCPPCPAPELLGGPSVFLFPPKPKDTLMISRTPEVTCVVVDVSHEDPEVKFNWYVDGVEVHNAKTKPREEQYNSTYRVVSVLTVLHQDWLNGKEYKCKVSNDALPMPIEETISKAKGQPREPQVYTLPPSRCELTKNQVSLSCAVKGFYPSDIAVEWESNGQPENNYKTTPPVLDSDGSFFLVSKLTVDKSRWQQGNVFSCSVMHEALHNHYTQKSLSLSP light: DIQMTQSPSSLSASVGDRVTITCRASQDIHKYIAWYQQKPGQAPRLLIQYTSTLQPGVPSRFSGSGSGTDYTFTISSLQPEDIATYYCLQYEQLRTFGGGTKVEIKRTVAAPSVFIFPPSDEQLKSGTASVVCLLNNFYPREAKVQWKVDNALQSGNSQESVTEQDSKDSTYSLSSTLTLSKADYEKHKVYACEVTHQGLSSPVTKSFNRGEC | 0.8 | 0.8 | 1.2 |
| H240-Kn061/H240-Hl071/L73-k0 variant with Y234G in H240-Kn061 (antibody, human IgG1, kappa, anti-epiregulin heterodimerized IgG1; also called H240-Kn061 Y234G) heavy 1: QDQLVQSGAEVKKPGASVKVSCKASGFNIKDTYIQWVRQAPGQGLEWMGRIDPLRKQTKYREKFEGRVTITADTSTNTAYMELSSLRSEDTAVYYCVRSGREFDYWGQGTLVTVSSASTKGPSVFPLAPSSKSTSGGTAALGCLVKDYFPEPVTVSWNSGALTSGVHTFPAVLQSSGLYSLSSVVTVPSSSLGTQTYICNVNHKPSNTKVDKKVEPKSCDKTHTCPPCPAPEGYWGPSVFLFPPKPKDTLMISRTPEVTCVVVDVSDEDPEVKFNWYVDGVEVHNAKTKPREEQYNATYRVVSVLTVLHQDWLNGKEYKCKVSNKALPAPIEKTISKAKGQPREPQVCTLPPSRDELTKNQVSLWCLVKGFYPSDIAVEWESNGQPENNYKTTPPVLDSDGSFFLYSKLTVDKSRWQQGNVFSCSVMHEALHNHYTQKSLSLSP heavy 2: QDQLVQSGAEVKKPGASVKVSCKASGFNIKDTYIQWVRQAPGQGLEWMGRIDPLRKQTKYREKFEGRVTITADTSTNTAYMELSSLRSEDTAVYYCVRSGREFDYWGQGTLVTVSSASTKGPSVFPLAPSSKSTSGGTAALGCLVKDYFPEPVTVSWNSGALTSGVHTFPAVLQSSGLYSLSSVVTVPSSSLGTQTYICNVNHKPSNTKVDKKVEPKSCDKTHTCPPCPAPELLGGPSVFLFPPKPKDTLMISRTPEVTCVVVDVSHEDPEVKFNWYVDGVEVHNAKTKPREEQYNSTYRVVSVLTVLHQDWLNGKEYKCKVSNDALPMPIEETISKAKGQPREPQVYTLPPSRCELTKNQVSLSCAVKGFYPSDIAVEWESNGQPENNYKTTPPVLDSDGSFFLVSKLTVDKSRWQQGNVFSCSVMHEALHNHYTQKSLSLSP light: DIQMTQSPSSLSASVGDRVTITCRASQDIHKYIAWYQQKPGQAPRLLIQYTSTLQPGVPSRFSGSGSGTDYTFTISSLQPEDIATYYCLQYEQLRTFGGGTKVEIKRTVAAPSVFIFPPSDEQLKSGTASVVCLLNNFYPREAKVQWKVDNALQSGNSQESVTEQDSKDSTYSLSSTLTLSKADYEKHKVYACEVTHQGLSSPVTKSFNRGEC | 0.9 | 0.8 | 0.9 |
| H240-Kn061/H240-Hl071/L73-k0 variant with Y234A in H240-Kn061 (antibody, human IgG1, kappa, anti-epiregulin heterodimerized IgG1; also called H240-Kn061 Y234A) heavy 1: QDQLVQSGAEVKKPGASVKVSCKASGFNIKDTYIQWVRQAPGQGLEWMGRIDPLRKQTKYREKFEGRVTITADTSTNTAYMELSSLRSEDTAVYYCVRSGREFDYWGQGTLVTVSSASTKGPSVFPLAPSSKSTSGGTAALGCLVKDYFPEPVTVSWNSGALTSGVHTFPAVLQSSGLYSLSSVVTVPSSSLGTQTYICNVNHKPSNTKVDKKVEPKSCDKTHTCPPCPAPEAYWGPSVFLFPPKPKDTLMISRTPEVTCVVVDVSDEDPEVKFNWYVDGVEVHNAKTKPREEQYNATYRVVSVLTVLHQDWLNGKEYKCKVSNKALPAPIEKTISKAKGQPREPQVCTLPPSRDELTKNQVSLWCLVKGFYPSDIAVEWESNGQPENNYKTTPPVLDSDGSFFLYSKLTVDKSRWQQGNVFSCSVMHEALHNHYTQKSLSLSP heavy 2: QDQLVQSGAEVKKPGASVKVSCKASGFNIKDTYIQWVRQAPGQGLEWMGRIDPLRKQTKYREKFEGRVTITADTSTNTAYMELSSLRSEDTAVYYCVRSGREFDYWGQGTLVTVSSASTKGPSVFPLAPSSKSTSGGTAALGCLVKDYFPEPVTVSWNSGALTSGVHTFPAVLQSSGLYSLSSVVTVPSSSLGTQTYICNVNHKPSNTKVDKKVEPKSCDKTHTCPPCPAPELLGGPSVFLFPPKPKDTLMISRTPEVTCVVVDVSHEDPEVKFNWYVDGVEVHNAKTKPREEQYNSTYRVVSVLTVLHQDWLNGKEYKCKVSNDALPMPIEETISKAKGQPREPQVYTLPPSRCELTKNQVSLSCAVKGFYPSDIAVEWESNGQPENNYKTTPPVLDSDGSFFLVSKLTVDKSRWQQGNVFSCSVMHEALHNHYTQKSLSLSP light: DIQMTQSPSSLSASVGDRVTITCRASQDIHKYIAWYQQKPGQAPRLLIQYTSTLQPGVPSRFSGSGSGTDYTFTISSLQPEDIATYYCLQYEQLRTFGGGTKVEIKRTVAAPSVFIFPPSDEQLKSGTASVVCLLNNFYPREAKVQWKVDNALQSGNSQESVTEQDSKDSTYSLSSTLTLSKADYEKHKVYACEVTHQGLSSPVTKSFNRGEC | 1.2 | 0.8 | 0.9 |
| H240-Kn061/H240-Hl071/L73-k0 variant with Y234H in H240-Kn061 (antibody, human IgG1, kappa, anti-epiregulin heterodimerized IgG1; also called H240-Kn061 Y234H) heavy 1: QDQLVQSGAEVKKPGASVKVSCKASGFNIKDTYIQWVRQAPGQGLEWMGRIDPLRKQTKYREKFEGRVTITADTSTNTAYMELSSLRSEDTAVYYCVRSGREFDYWGQGTLVTVSSASTKGPSVFPLAPSSKSTSGGTAALGCLVKDYFPEPVTVSWNSGALTSGVHTFPAVLQSSGLYSLSSVVTVPSSSLGTQTYICNVNHKPSNTKVDKKVEPKSCDKTHTCPPCPAPEHYWGPSVFLFPPKPKDTLMISRTPEVTCVVVDVSDEDPEVKFNWYVDGVEVHNAKTKPREEQYNATYRVVSVLTVLHQDWLNGKEYKCKVSNKALPAPIEKTISKAKGQPREPQVCTLPPSRDELTKNQVSLWCLVKGFYPSDIAVEWESNGQPENNYKTTPPVLDSDGSFFLYSKLTVDKSRWQQGNVFSCSVMHEALHNHYTQKSLSLSP heavy 2: QDQLVQSGAEVKKPGASVKVSCKASGFNIKDTYIQWVRQAPGQGLEWMGRIDPLRKQTKYREKFEGRVTITADTSTNTAYMELSSLRSEDTAVYYCVRSGREFDYWGQGTLVTVSSASTKGPSVFPLAPSSKSTSGGTAALGCLVKDYFPEPVTVSWNSGALTSGVHTFPAVLQSSGLYSLSSVVTVPSSSLGTQTYICNVNHKPSNTKVDKKVEPKSCDKTHTCPPCPAPELLGGPSVFLFPPKPKDTLMISRTPEVTCVVVDVSHEDPEVKFNWYVDGVEVHNAKTKPREEQYNSTYRVVSVLTVLHQDWLNGKEYKCKVSNDALPMPIEETISKAKGQPREPQVYTLPPSRCELTKNQVSLSCAVKGFYPSDIAVEWESNGQPENNYKTTPPVLDSDGSFFLVSKLTVDKSRWQQGNVFSCSVMHEALHNHYTQKSLSLSP light: DIQMTQSPSSLSASVGDRVTITCRASQDIHKYIAWYQQKPGQAPRLLIQYTSTLQPGVPSRFSGSGSGTDYTFTISSLQPEDIATYYCLQYEQLRTFGGGTKVEIKRTVAAPSVFIFPPSDEQLKSGTASVVCLLNNFYPREAKVQWKVDNALQSGNSQESVTEQDSKDSTYSLSSTLTLSKADYEKHKVYACEVTHQGLSSPVTKSFNRGEC | 1.3 | 0.8 | 0.9 |
